Experimental data as given in paper PMC3509953 (Journal of molecular biology, 2012).
Positions count from the first letter of the chain named. Numbers in names are those of the source.

B1: activin A (ligand, UniProt P08476 311-426, looked up)
chain: GLECDGKVNICCKKQFFVSFKDIGWNDWIIAPSGYHANYCEGECPSHIAGTSGSSLSFHSTVINHYRMRGHSPFANLKSCCVPTKLRPMSMLYYDDGQNIIKKDIQNMIVEECGCS
B2: DAN (differential screening selected gene abberative in neuroblastoma) (natural protein, human)
chain: AAPPPINKLALFPDKSAWCEAKNITQIVGHSGCEAKSIQNRACLGQCFSYSVPNTFPQSTESLVHCDSCMPAQSMWEIVTLECPGHEEVPRVDKLVEKILHCSCQACGKEPSHEGLSVYVQGEDGPGSQPGTHPHPHPHPHPGGQTPEPEDPPGAPHTEEEGAEDLEVLFQ
B3: Protein related to DAN and Cerberus (PRDC), wild type, bacterially produced (natural protein, mouse, UniProt O88273 22-168, looked up)
chain: RKNRPAGAIPSPYKDGSSNNSERWHHQIKEVLASSQEALVVTERKYLKSDWCKTQPLRQTVSEEGCRSRTILNRFCYGQCNSFYIPRHVKKEEDSFQSCAFCKPQRVTSVIVELECPGLDPPFRIKKIQKVKHCRCMSVNLSDSDKQ
modifications: a single glutathione (by mass spectrometry; residue not stated)
B4: BMP4 (ligand, UniProt P12644 293-408, looked up)
chain: SPKHHSQRARKKNKNCRRHSLYVDFSDVGWNDWIVAPPGYQAFYCHGDCPFPLADHLNSTNHAIVQTLVNSVNSSIPKACCVPTELSAISMLYLDEYDKVVLKNYQEMVVEGCGCR
B5: PRDC with the unpaired cysteine mutated to serine (C120S), bacterially produced (natural protein, mouse, UniProt O88273 22-168, looked up)
chain: B3 chain with C99S
B6: BMP2 (ligand, UniProt P12643 283-396, looked up)
chain: QAKHKQRKRLKSSCKRHPLYVDFSDVGWNDWIVAPPGYHAFYCHGECPFPLADHLNSTNHAIVQTLVNSVNSKIPKACCVPTELSAISMLYLDENEKVVLKNYQDMVVEGCGCR
B7: BMP7 (ligand, UniProt P18075 293-431, looked up)
chain: STGSKQRSQNRSKTPKNQEALRMANVAENSSSDQRQACKKHELYVSFRDLGWQDWIIAPEGYAAYYCEGECAFPLNSYMNATNHAIVQTLVHFINPETVPKPCCAPTQLNAISVLYFDDSSNVILKKYRNMVVRACGCH

Columns and labels:
[1] = biological target: the molecule itself; assay: MALDI-TOF mass spectrometry
cross-linking = biological target: the molecule itself; assay: cross-linking
SEC = biological target: the molecule itself; assay: SEC
[2] = biological target: B5; assay: SPR
AUC = biological target: the molecule itself; assay: AUC

Question: Which “stoichiometry N” value [1] does the source give for B1 here?
Answer: Its value is 2.

Question: Which “stoichiometry N” value (cross-linking) does the source give for B2 here?
Answer: The value was 2.

Question: With B3 as the binder, how does the “stoichiometry N” value (SEC) read?
Answer: The value was 2.

Question: How did the Kd [2] turn out when B4 was run?
Answer: The Kd was 70.7 ± 2.6 nM.

Question: How did the “stoichiometry N” value (AUC) turn out when B5 was run?
Answer: Its value is 2.

Question: For B6, which Kd [2] is on record?
Answer: The Kd was 57.1 ± 7.8 nM.

Question: With B7 as the binder, how does the Kd [2] read?
Answer: The Kd was 86.6 ± 3.7 nM.
